Measured values published in the DeepSol protein solubility set.

test: soluble on expression in E. coli; label from the status in PepcDB or PDB records

Row | Sequence | soluble on expression in E. coli
1 | MATIHPPAYLLDQAKRRFTPSFNNFPGMSLVEHMLLNTKFPEKKLAEPPPGSGLKPVVGDAGLPILGHMIEMLRGGPDYLMFLYKTKGPVVFGDSAVLPGVAALGPDAAQVIYSNRNKDYSQQGWVPVIGPFFHRGLMLLDFEEHMFHRRIMQEAFVRSRLAGYLEQMDRVVSRVVADDWVVNDARFLVYPAMKALTLDIASMVFMGHEPGTDHELVTKVNKAFTITTRAGNAVIRTSVPPFTWWRGLRARELLENYFTARVKERREASGNDLLTVLCQTEDDDGNRFSDADIVNHMIFLMMAAHDTSTSTATTMAYQLAAHPEWQQRCRDESDRHGDGPLDIESLEQLESLDLVMNESIRLVTPVQWAMRQTVRDTELLGYYLPKGTNVIAYPGMNHRLPEIWTDPLTFDPERFTEPRNEHKRHRYAFTPFGGGVHKCIGMVFDQLEIKTILHRLLRRYRLELSRPDYQPRWDYSAMPIPMDGMPIVLRPR | not soluble
2 | MASISRFRGCLAGALLGDCVGAVYEAHDTVSLASVLSHVESLEPDPGTPGSARTETLYYTDDTAMTRALVQSLLAKEAFDEVDMAHRFAQEYKKDPDRGYGAGVITVFKKLLNPKCRDVYEPARAQFNGKGSYGNGGAMRVAGISLAYSSVQDVQKFARLSAQLTHASSLGYNGAILQALAVHLALQGVSSSEHFLEQLLGHMEELEGDAQSVLDAKELGMEERPYSSRLKKVGELLDQDVVSREEVVSELGNGIAAFESVPTAIYCFLRCMEPHPEIPSTFNSLQRTLIYSISLGGDTDTIATMAGAIAGAYYGMEQVPESWQQSCEGFEETDVLAQSLHRVFQES | soluble
3 | MQGVKERFLPLGNSGDRAPRPPDGRGRVRPRTQDGVGNHTMARIPKTLKFVVVIVAVLLPVSPRRGPWLGKSAPGAGRGQGDGDTAGMPGPGHLRPGMSGQDELAVGVRGRTGSPGWAGGTRPRGSREAVPLAAPSPRREGSSRIERGRESRWNP | soluble
4 | SHPALTQLRALRYSKEIPALDPQLLDWLLLEDSMTKRFEQQGKTVSVTMIREGFVEQNEIPEELPLLPKESRYWLREILLSADGEPWLAARTVVPVSTLSGPELALQKLGKTPLGRYLFTSSTLTRDFIEIGRDAGLWGRRSRLRLSGKPLLLTELFLPASPLY | soluble
5 | MGSDKIHHHHHHMPKLVTWMNNQRVGELTKLANGAHTFKYAPEWLASRYARPLSLSLPLQRGNITSDAVFNFFDNLLPDSPIVRDRIVKRYHAKSRQPFDLLSEIGRDSVGAVTLIPEDETVTHPIMAWEKLTEARLEEVLTAYKADIPLGMIREENDFRISVAGAQEKTALLRIGNDWCIPKGITPTTHIIKLPIGEIRQPNATLDLSQSVDNEYYCLLLAKELGLNVPDAEIIKAGNVRALAVERFDRRWNAERTVLLRLPQEDMCQTFGLPSSVKYESDGGPGIARIMAFLMGSSEALKDRYDFMKFQVFQWLIGATDGHAKNFSVFIQAGGSYRLTPFYDIISAFPVLGGTGIHISDLKLAMGLNASKGKKTAIDKIYPRHFLATAKVLRFPEVQMHEILSDFARMIPAALDNVKTSLPTDFPENVVTAVESNVLRLHGRLSREYGSK | not soluble
6 | MTIQQAMHQMPGKPGRDAIAEGETPRKASSDEAGCPRNDSTPTGSGLLQAALTRDNLQLAFKQVRANKGAAGVDGLGIVETAEHLKTAWPGIRAQLLAGTYRPDPVRRVLIPKPGGGERKLGIPTVTDRLIQQALLQVLQPLLDPDFSNHSYGFRPERSAHQAVLAAQQYIHSGRQIVVDVDLEQFFDCVEHDVLIARLGRKVKDRDVLRLIRAYLNSGALIEGMVMTSTRGTPQGGPLSPLLANVVLDEVDKELERRGHCFVRYADDANVYVRSPKAGQRVMALLRRLYGRLGLRVNESKSAVASAFGRKFLGFSFWQSPKGEVKRRVALKALQVFKHRIRGLTPRSGGRSLPQVVENLRPYLLGWKAYFGLSQAPGLWKSLDGWIRRRLRAIQLKQWKTGKTTYRELRKLGANSDLAAAIASDSHRTWHNSAGLIHGVLTVAWFDRLGLPRLYLEHHHHHH | not soluble
7 | MAHHHHHHMLSQNVAKTTVPSYYMIRTNLPQRKPQNQWEGVYYFGGITKRQRHLILLQRKREREARMRAFSASCSNLLRLLEGDTQEQQQAKTQTIQLSSPHGPFDLAIRLAQHGLYQQASRIVDELHQQRALRMSHYGLLIDALSAPCLGQRILYGSAQCDPALTYKLLGDENGEERAQEAHRWFDMAFALLTTECRMSGSEHRLPQATAAATHLVNALMRALLTCGYTHVSAVPDAVYDRMGLMGISPTISTYELVMLALSLQGNMKEAESVFSFLRRHHNEHVTIGSFNALLLGHRECRQFDRCDAIWQELVDRRWPRASTLTAELYLRSIVDHSYTPTSGPLQRFGNINVVEKKKIPLVLAQMDDLGIPRAHLSRPLMDEVEDALRKFHIYKSRYYEWGRAVKQFNFIEFRRRNGWMYDLHLMKNTTKQVGPLRDFNQPDATQAPVATVEIPAFFNERPAWEQPPLEETLYVTESRERYDDVRSGDIYEDRTRSLHDRSPTWMNEVPETRYDHLYGVNHPDIAKIGIRRHLNAEYVNRKEVVERDAALMKKNLSTGRRLRRKVESSRTHRNAGSMSGAAPASASR | not soluble
8 | MRRLNRFKAPDEKVNTLFQVYKTISFWKVVKNTVVVEFGRFFPWMGGKRNIYRACLGMKIGKKTAIAYKVMPDLFFPEKITIGENSIIGYHTTILTHEYLLSEYHVGEVVIGKNVMVGANVTILPGIEIGDGAIVAAGAVVSKDVPPESFAYGNPLVIKEKAALEHHHHHH | soluble
9 | SSESIRMVLIGPPGAGKGTQAPNLQERFHAAHLATGDMLRSQIAKGTQLGLEAKKIMDQGGLVSDDIMVNMIKDELTNNPACKNGFILVGFPRTIPQAEKLDQMLKEQGTPLEKAIELKVDDELLVARITGRLIHPASGRSYHKIFNPPKEDMKDDVTGEALVQISDDNADALKKRLAAYHAQTEPIVDFYKKTGIWAGVDASQPPATVWADILNKLGKN | soluble
10 | MGSDKIHHHHHHMKIAIITFFDNGNYGSELQTLAMNDYLNAKGHVTVFCKVKSSNKIIRAIELLYDKVLLKWYKITDKEKRQYLTDRAKNLSSQRNIPPKLRQYIHSFVNSHISFGCISRLLLFRKERFDAYICGSDQIWSALKMPLLPLNFLYGIDKKKKIAYAPSIGLDNPPYYYIREVEKYVKDFIYLSVREEDAKNVLKKQYGIEAMQVLDPTLLQGKGFWDSLLAIESKQVPTKPYVFCYFLGKLNEDIVTCINRIANGKCVMVLPYEEDCDLIKNGKYELADPLDFVNLIKHADYVLTDSFHGSIFSILYDKQFVVTKRTHVRRVSQTSRITSLLKIFNLQSQYCSGVDEIINALQNNIDYSFTHIQLEEEQRKSRLFLDGALNEIEKNIKS | not soluble
11 | VRPHWRDLETLRLAAQRFGDGDLSSRTRIFRRSDIRTLAQHFNQMADRIESLISNQRELTNAVSHELRTPISRLSFELEQLNKQVDAEVRHDLIEDMRADLGELEEMVSELLTYARLEHGNVGSHREIVDAASWLDSVVADVALEAEAAGVTCEISACQVEQIRIEPRFMARAVINLLRNAIRHAHSRVEIALLDQGDSCQIRVNDDGPGIPADARQKIFEPFSRLDDSRDRSTGGFGLGLAIVHRVAQWHGGYAEALETPQGGASFRLTWERPR | not soluble
12 | GMASSFLEEVDRLITLSGITFHASGTGTPELIKIYQDALGNEFPETYKLFLEKYGTLTFNGVSFYGISKRGLSAASIPDVKFATEQARTFGDINKEMIMIKNSGYGSIFSIDTSIIGSEGEPVIVETNLSFKDNTEKKVVANSFGEFLLEEIELSLTDLG | soluble
13 | MGSDKIHHHHHHMPVQQLFYKTAVPVSAKRHGDLSISSGKTYAFARHTNSIPLTALEFGPAAGTHPIVFAGTGEDVVPAIIVGTREDENLAVDADGNWQGTYIPAFARRYPFIFSLDKDKNQFTLLVDEEFEGANRDGRGERLFDSEGEQTGYLKSVLKFLQDYQAGFARTQAFCKRLKELDLLVPMQAEFSLGAGQKRTLGGFQVVDREKLKALSGEVLADLCRKDELECIYLHLSSMRHFRQMLERANTEASEAEPETDAADVAEPMAET | not soluble
14 | MGRMHNPGKGMAKSAIPYRRSVPSWQKMTAEEVQDQIVKMAKKGLRPSQIGVILRDSHGVGQVRRLAGNKIFRILKSKGMAPELPEDLYHLVKKAVAIRKHLERSRKDIDSKYRLILVESRIHRLARYYKTKRQLPPTWKYESGTAASLVS | soluble
15 | MGSDKIHHHHHHMTEFEVHIDLGGSTFPVGLARCNRVRGTERILFEYDAEWLASPDRFSLEPALALTRGAFAPPAGMTSFGSIGDSAPDTWGRRLMQRAERRRAAREGRSVRTLAESDYLLGVSDETRLGALRFRRVGETSFQAPIQAGVPALVELGRLLQVTERVLRDEETDEDLQLIFAPGSSLGGARPKASVIDQYGHLAIAKFPKDTDEYSVETWEEIALRLANQAGIVTPQHELVDVGGRAVMLSRRFDRDGTIRIPFLSAMAMMGARDGEPGSYPEMVDALTAHGAQGKTDAHALYRRVVFSVMISNVDDHLRNHGFLWLGNAGWSLAPAYDLNPVPSDLKARVLTTNIDLDESTCSVDLLEAASGYFGLTLANARRIIKDVASVTATWRNTARAVGARPAEIERMASAFEHDDLQHGLAL | not soluble
16 | MSLKLKIADIAMRTGLSSSTVSRVLAGKANTSYRAREKVLACARELGVMDGMASGRMLLNNLVIFAPQRAFDERTDIFYFRVIQSISKALSHYEVRLRYCALDEFDSTPSKFLARMNEAETQAAILLGIDDPHIHDLAADFSKPCVMINCHDRRMRLPTVAPDHKNIGAFASHFLFEMGHRRVMNIMCLRRYTMELRLAGIKEAWERQNQNFKDDRDLLTINSFSAKEAEEKVGAWLDMTEKSMLPTAFLASGDFIAAGIINALKKRNIRVPQDVSVMSIDGFNLAAIEDVPLTAVHVPRDELGTEAVHMLQQRLVRPDATVGALLLYGKLVIRESVREGHHHHHH | not soluble
17 | KVIAGLYQRAFQHLSEAVQAAEEEAQPPSWSCGPAAGVIDAYMTLADFCDQQLRKEEENASVIDSAELQAYPALVVEKMLKALKLNSNEARLKFPRLLQIIERYPEETLSLMTKEISSVPCWQFISWISHMVALLDKDQAVAVQHSVEEITDNYPQAIVYPFIISSESYSFKDTSTGHKNKEFVARIKSKLDQGGVIQDFINALDQLSNPELLFKDWSNDVRAELAKTPVNKKNIEKMYERMYAALGDPKAPGLGAFRRKFIQTFGKEFDKHFGKGGSKLLRMKLSDFNDITNMLLLKMNKDSKPPGNLKECSPWMSDFKVEFLRNELEIPGQYDGRGKPLPEYHVRIAGFDERVTVMASLRRPKRIIIRGHDEREHPFLVKGGEDLRQDQRVEQLFQVMNGILAQDSACSQRALQLRTYSVVPMTSSDPRAPPCEYKDWLTKMSGKHDVGAYMLMYKGANRTETVTSFRKRESKVPADLLKRAFVRMSTSPEAFLALRSHFASSHALICISHWILGIGDRHLNNFMVAMETGGVIGIDFGHAFGSATQFLPVPELMPFRLTRQFINLMLPMKETGLMYSIMVHALRAFRSDPGLLTNTMDVFVKEPSFDWKNFEQKMLKKGGSWIQEINVAEKNWYPRQKICYAKRKLAGANPAVITCDELLLGHEKAPAFRDYVAVARGSKDHNIRAQEPESGLSEETQVKCLMDQATDPNILGRTWEGWEPWM | soluble
18 | MGKTSQRKQCDCENPSKPCLSTSIPLRMSSYTFKRPVTKITSHLGNEVRYYQWEETFKKPEQACWQKRLQGLQAYSSAGELLSTSDLAKTLKDLTSTDTVASASDTQATSIDITSVPTLESSSHLANMIPEAGPQILCKEFLVTEQDIINQERKVKIARERLAVALIAHKLASEMETVRGSRKANL | not soluble
19 | MIKASLVFFAFLALASGRRHHYDYYDCEPERGPRGREGREGPRGAQGAPGPNGTGFFWPGTCEQSDCPDGWISVNRKINNDVEKKWCINMFWNQATNDLYKTSEKVCNSYGGVMTGFKDKGEFISVFALLKNRFPNIKPVSQVMIGARRLETCASISNFGNCTITKGTKWTDLVMSIDSFFNELQQSARFSPLKKCIVANPTNLKLYVANCNVLESDYPQDLFMCGRFAPCKK | not soluble
